IntAct's records for PubMed 19338389

B1: Transcription factor p65 (Mus musculus), Q04207 (parent)
chain: MDDLFPLIFPSEPAQASGPYVEIIEQPKQRGMRFRYKCEGRSAGSIPGERSTDTTKTHPTIKINGYTGPGTVRISLVTKDPPHRPHPHELVGKDCRDGYYEADLCPDRSIHSFQNLGIQCVKKRDLEQAISQRIQTNNNPFHVPIEEQRGDYDLNAVRLCFQVTVRDPAGRPLLLTPVLSHPIFDNRAPNTAELKICRVNRNSGSCLGGDEIFLLCDKVQKEDIEVYFTGPGWEARGSFSQADVHRQVAIVFRTPPYADPSLQAPVRVSMQLRRPSDRELSEPMEFQYLPDTDDRHRIEEKRKRTYETFKSIMKKSPFNGPTEPRPPTRRIAVPTRNSTSVPKPAPQPYTFPASLSTINFDEFSPMLLPSGQISNQALALAPSSAPVLAQTMVPSSAMVPLAQPPAPAPVLTPGPPQSLSAPVPKSTQAGEGTLSEALLHLQFDADEDLGALLGNSTDPGVFTDLASVDNSEFQQLLNQGVSMSHSTAEPMLMEYPEAITRLVTGSQRPPDPAPTPLGTSGLPNGLSGDEDFSSIADMDFSALLSQISS
partner: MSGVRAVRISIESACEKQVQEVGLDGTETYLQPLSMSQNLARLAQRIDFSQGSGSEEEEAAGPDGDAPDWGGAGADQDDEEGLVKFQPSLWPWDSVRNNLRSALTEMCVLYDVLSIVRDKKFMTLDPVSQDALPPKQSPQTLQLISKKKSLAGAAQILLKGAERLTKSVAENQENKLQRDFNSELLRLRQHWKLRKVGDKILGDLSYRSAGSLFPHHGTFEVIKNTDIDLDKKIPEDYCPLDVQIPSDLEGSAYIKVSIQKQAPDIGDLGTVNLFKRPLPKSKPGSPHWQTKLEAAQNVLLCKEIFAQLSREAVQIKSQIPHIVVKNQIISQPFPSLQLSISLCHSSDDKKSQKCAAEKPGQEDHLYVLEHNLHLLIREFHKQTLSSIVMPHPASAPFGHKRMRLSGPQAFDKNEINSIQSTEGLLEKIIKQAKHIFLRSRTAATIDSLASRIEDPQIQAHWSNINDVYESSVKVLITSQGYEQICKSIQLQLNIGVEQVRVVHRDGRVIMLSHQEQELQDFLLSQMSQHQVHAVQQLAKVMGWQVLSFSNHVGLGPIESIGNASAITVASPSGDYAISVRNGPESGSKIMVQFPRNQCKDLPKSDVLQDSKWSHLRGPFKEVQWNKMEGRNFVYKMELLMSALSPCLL

Variants of: B1
Details: with med17_mouse Med17, Q8VCD5

Effect of a mutation on the interaction, disrupting interaction:
D539A;F540A
I535A;D537A;M538S;D539A;F540A;S541A
G528A;D529A;E530A;D531S;F532A;S533A;S534A
